Assay results from paper PMC3139429.

Columns and labels:
[1] = target: MyrMA (myristoylated matrix) (HIV-1, UniProt P12493 2-132); experiment: fluorescence anisotropy
[2] = target: MA (unmyristoylated matrix) (HIV-1, UniProt P12493 2-132); experiment: fluorescence anisotropy

B1: FITC-Sel25 (structured_RNA)
RNA: GGACAGGAAUUAAUAGUAGCUGUCC
- Kd [1]: 813 ± 74 nM
- Kd [2]: 1030 ± 80 nM
